From US20090312277

Target: p21/WAF1 (UniProt P38936)
Sequence (P38936 whole entry): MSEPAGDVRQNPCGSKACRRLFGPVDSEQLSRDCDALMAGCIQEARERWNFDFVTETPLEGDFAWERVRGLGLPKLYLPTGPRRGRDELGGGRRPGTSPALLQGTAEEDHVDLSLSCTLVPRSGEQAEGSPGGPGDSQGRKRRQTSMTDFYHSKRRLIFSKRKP

Chain of cathepsin L (chain, as listed by the source): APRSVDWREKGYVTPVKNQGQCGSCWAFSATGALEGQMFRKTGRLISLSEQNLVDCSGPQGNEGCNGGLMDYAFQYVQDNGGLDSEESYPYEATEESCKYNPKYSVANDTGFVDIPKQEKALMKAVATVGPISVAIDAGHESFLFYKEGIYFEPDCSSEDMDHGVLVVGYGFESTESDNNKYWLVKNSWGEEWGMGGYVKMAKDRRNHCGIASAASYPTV

With cathepsin L as the substance, how does the cleavage in vitro read?
Its cleavage in vitro is “p2l/WAF1 is readily cleaved by cathepsin L in vitro”.
